Six molecules from patent publication US20180230213A1 (AVEO PHARMACEUTICALS, published 2018) can be followed below.

Numbering of substitutions follows the chain as printed. Names and notes keep the numbering of the source.

T1: monomeric recombinant human Notch3 extracellular domain (containing EGF like domains 1-11) fusion protein (human, UniProt Q9UM47 40-467)
T1 construct: domain: EGF like domains 1-11; also called monomeric rhNotch3
T1 sequence (looked up): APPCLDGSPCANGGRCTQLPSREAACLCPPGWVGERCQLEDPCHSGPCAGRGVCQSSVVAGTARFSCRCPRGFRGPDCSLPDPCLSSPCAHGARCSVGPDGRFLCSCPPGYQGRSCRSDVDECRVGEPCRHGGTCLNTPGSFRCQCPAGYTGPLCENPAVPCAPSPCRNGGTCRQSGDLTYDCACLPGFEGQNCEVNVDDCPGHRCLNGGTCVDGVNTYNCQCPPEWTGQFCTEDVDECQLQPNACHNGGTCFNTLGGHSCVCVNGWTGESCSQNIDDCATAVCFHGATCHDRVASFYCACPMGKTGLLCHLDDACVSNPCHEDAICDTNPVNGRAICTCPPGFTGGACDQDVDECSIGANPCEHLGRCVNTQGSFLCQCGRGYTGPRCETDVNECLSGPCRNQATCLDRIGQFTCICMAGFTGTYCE

B1: Hu4F11-76 (antibody, human IgG1, kappa, V domains shown)
VH: EVQLLESGGGLVQPGGSLRLSCAASGFAFSHYDMSWVRQAPGKGLEWVSYISRGGGSTYYPDSVKGRFTISRDNSKNTLYLQMNSLRAEDTAVYYCGRHATTAYWYFDVWGQGTMVTVSS
VL: DVVMTQTPLSLSVTPGQPASISCRSSQSLVHTYGNTYLHWYLQKPGQSPQLLIYKVSNRFSGVPDRFSGSGSGTDFTLKISRVEAEDVGVYFCSQSTHVPWTFGQGTKVEIKR
notes: Humanized, human IgG1 kappa; Hv3-23 S31H T62S heavy + Kv2D-29 N28Y kappa
B2: Hu4F11-77 (antibody, human IgG1, kappa, V domains shown)
VH: B1 VH with A28T, H31N
VL: B1 VL with Y33Q
notes: Humanized, human IgG1 kappa; Hv3-23 A28T S31N T62S heavy + Kv2D-29 N28Q kappa
B3: Hu4F11-78 (antibody, human IgG1, kappa, V domains shown)
VH: B1 VH with A28T
VL: B1 VL with Y33Q
notes: Humanized, human IgG1 kappa; Hv3-23 A28T S31H T62S heavy + Kv2D-29 N28Q kappa
B4: Hu4F11-79 (antibody, human IgG1, kappa, V domains shown)
VH: B1 VH with A28T, H31S
VL: B1 VL with Y33Q
notes: Humanized, human IgG1 kappa; Hv3-23 A28T T62S heavy + Kv2D-29 N28Q kappa
B5: Hu4F11-80 (antibody, human IgG1, kappa, V domains shown)
VH: B1 VH
VL: B1 VL with Y33Q
notes: Humanized, human IgG1 kappa; Hv3-23 S31H T62S heavy + Kv2D-29 N28Q kappa
B6: recombinant human Notch3 extracellular domain (containing EGF like domains 1-11) Fc fusion protein (Fc fusion, UniProt Q9UM47 40-467, looked up, not shown: a dimerising Fc or GST)
chain: T1 sequence (looked up)
notes: domain: EGF like domains 1-11; also called rhNotch3-Fc; rhNotch3

T4 sequence (Q9Y219 27-1080 limits assumed): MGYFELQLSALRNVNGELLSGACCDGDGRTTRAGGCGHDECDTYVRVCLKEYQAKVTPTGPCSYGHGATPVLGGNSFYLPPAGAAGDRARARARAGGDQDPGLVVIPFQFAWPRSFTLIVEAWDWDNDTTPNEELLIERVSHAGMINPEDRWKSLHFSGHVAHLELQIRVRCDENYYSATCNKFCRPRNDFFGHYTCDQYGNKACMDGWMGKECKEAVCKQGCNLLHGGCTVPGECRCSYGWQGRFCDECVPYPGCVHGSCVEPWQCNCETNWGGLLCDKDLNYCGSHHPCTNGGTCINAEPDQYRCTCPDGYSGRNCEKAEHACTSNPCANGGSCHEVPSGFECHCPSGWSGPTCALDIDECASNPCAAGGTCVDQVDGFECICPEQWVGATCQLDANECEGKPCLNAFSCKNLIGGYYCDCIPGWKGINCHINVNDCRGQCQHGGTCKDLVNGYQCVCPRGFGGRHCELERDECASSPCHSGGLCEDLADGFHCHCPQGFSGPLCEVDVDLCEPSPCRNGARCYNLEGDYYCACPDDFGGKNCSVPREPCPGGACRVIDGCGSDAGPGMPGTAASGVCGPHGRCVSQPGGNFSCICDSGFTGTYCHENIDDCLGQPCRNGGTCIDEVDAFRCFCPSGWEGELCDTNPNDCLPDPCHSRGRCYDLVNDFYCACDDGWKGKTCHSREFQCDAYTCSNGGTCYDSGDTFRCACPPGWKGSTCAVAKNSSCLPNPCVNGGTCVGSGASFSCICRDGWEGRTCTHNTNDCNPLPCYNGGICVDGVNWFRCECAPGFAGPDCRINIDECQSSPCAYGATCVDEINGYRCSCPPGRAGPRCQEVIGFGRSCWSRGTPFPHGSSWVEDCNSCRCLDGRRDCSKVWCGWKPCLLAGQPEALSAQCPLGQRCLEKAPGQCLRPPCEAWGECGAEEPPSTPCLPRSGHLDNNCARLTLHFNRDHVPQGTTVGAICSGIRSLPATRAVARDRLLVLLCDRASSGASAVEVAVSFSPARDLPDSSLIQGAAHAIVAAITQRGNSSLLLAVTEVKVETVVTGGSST

In one test the target is T2, monomeric recombinant cynomologus monkey Notch3 extracellular domain (containing EGF like domains 1-12) … (cynomologus monkey).
T2 construct: domain: EGF like domains 1-12; also called monomeric rcNotch3
Kind of test: SPR BIAcore T100, antibody captured by anti-human IgG Fc, monomeric rcNotch3 analyte, 25 C. The protocol:
(§1) The binding affinities and kinetics of binding of chimeric and humanized antibodies to monomeric recombinant human Notch3 extracellular domain (containing EGF like domains 1-11) fusion protein (monomeric rhNotch3) and monomeric recombinant cynomologus monkey Notch3 extracellular domain (containing EGF like domains 1-12) fusion protein (monomeric rcNotch3) were measured by surface plasmon resonance, using a BIAcore® T100 instrument (GE Healthcare, Piscataway, N.J.).
(§2) Goat anti-human IgGs (Fc fragment specific, Jackson ImmunoResearch, West Grove, Pa.) were immobilized on carboxymethylated dextran CM4 sensor chips by amine coupling, according to a standard protocol. Analyses were performed at 25 and 37° C. using PBS containing 0.05% surfactant P20 as running buffer. The antibodies were captured in individual flow cells at a flow rate of 10 μL/minute. Injection time was varied for each antibody to yield an Rmax between 30 and 60 RU. Buffer or Notch3 protein diluted in running buffer was injected sequentially over a reference surface (no antibody captured) and the active surface (antibody to be tested) for 240 seconds at 60 μL/minute. The dissociation phase was monitored for up to 900 seconds. The surface was then regenerated with two 60-second injections of 10 mM Glycine-HCl, pH 2.25, at a flow rate of 30 μL/minute. The Notch3 concentration range tested was 50 nM to 6.25 nM.
Kinetic parameters were determined using the kinetic function of the BIAevaluation software (GE Healthcare) with double reference subtraction. Kinetic parameters for each antibody, kₐ (association rate constant), kd (dissociation rate constant), and KD (equilibrium dissociation constant) were determined.
(In SPR one partner is held on a chip, and binding of the other changes the refractive index at the surface.)
Broadly, the Kd is the concentration at which binding is half-saturated. As usually defined, the koff is a measure of how fast the partners let go of each other. One may read the kon as a measure of how fast the partners come together. For the molecule B1, the Kd is 2.5 nM, the koff was 0.0019 s⁻¹ and the kon amounted to 780000 M⁻¹ s⁻¹.

For the molecule B2, the Kd was determined as 2.6 nM, the koff was 0.0025 s⁻¹ and the kon was found to be 960000 M⁻¹ s⁻¹.

With B3, the Kd was determined as 2.2 nM, the koff came to 0.0038 s⁻¹ and the kon is 1.8e+06 M⁻¹ s⁻¹.

In the case of B4, the Kd worked out at 3.4 nM, the koff came out at 0.0046 s⁻¹ and the kon came to 1.3e+06 M⁻¹ s⁻¹.

Turning to B5, the Kd is 4 nM, the koff came to 0.0032 s⁻¹ and the kon came out at 820000 M⁻¹ s⁻¹.

The target of the next test is T2, monomeric recombinant cynomologus …. As to the kind of experiment: SPR BIAcore T100, antibody captured by anti-human IgG Fc, monomeric rcNotch3 analyte, 37 C. The method, then: as §1, §2
As for B1, the Kd stood at 12 nM, the koff is 0.0062 s⁻¹ and the kon was found to be 540000 M⁻¹ s⁻¹.

With B2, the Kd was found to be 12 nM, the koff was determined as 0.01 s⁻¹ and the kon amounted to 910000 M⁻¹ s⁻¹.

For B3, the Kd was 11 nM, the koff turned out to be 0.007 s⁻¹ and the kon was determined as 660000 M⁻¹ s⁻¹.

As to B4, the Kd came out at 23 nM, the koff is 0.021 s⁻¹ and the kon came out at 980000 M⁻¹ s⁻¹.

For the molecule B5, the Kd is 12 nM, the off-rate (koff) worked out at 0.01 s⁻¹ and the kon is 910000 M⁻¹ s⁻¹.

A further test has as its target T1, monomeric recombinant human Notch3 …. As to the kind of experiment: SPR BIAcore T100, antibody captured by anti-human IgG Fc, monomeric rhNotch3 analyte, 37 C. The method, then:
as §1, §2
For B1, the Kd is 3.3 nM, the koff stood at 0.0055 s⁻¹ and the kon is 1.7e+06 M⁻¹ s⁻¹.

For B2, the Kd was determined as 3.3 nM, the koff was determined as 0.0073 s⁻¹ and the kon amounted to 2.2e+06 M⁻¹ s⁻¹.

In the case of B3, the Kd came out at 3.8 nM, the koff came to 0.0055 s⁻¹ and the kon is 1.5e+06 M⁻¹ s⁻¹.

As for B4, the Kd amounted to 3.2 nM, the dissociation rate constant (koff) stood at 0.006 s⁻¹ and the kon stood at 1.8e+06 M⁻¹ s⁻¹.

On to B5, for which the Kd turned out to be 3.8 nM, the koff was 0.0041 s⁻¹ and the kon was 1.1e+06 M⁻¹ s⁻¹.

The target is the same in another test. Kind of test: SPR BIAcore T100, monomeric rhNotch3 analyte, 37 C, average of Table 16 and additional measurements. The method, then: as §2
As for B1, the Kd was 8.2 nM, the koff amounted to 0.0064 s⁻¹ and the kon is 980000 M⁻¹ s⁻¹.

B2: the Kd turned out to be 8.6 nM, the koff is 0.0074 s⁻¹ and the kon is 1.2e+06 M⁻¹ s⁻¹.

Consider B3, for which the Kd amounted to 9 nM, the koff was 0.006 s⁻¹ and the kon turned out to be 820000 M⁻¹ s⁻¹.

Take B4: the Kd was 16 nM, the koff amounted to 0.0091 s⁻¹ and the kon came to 900000 M⁻¹ s⁻¹.

On to B5, for which the Kd was determined as 14 nM, the koff was determined as 0.0056 s⁻¹ and the kon turned out to be 590000 M⁻¹ s⁻¹.

The next test addresses T3, rhJag1-Fc (human, UniProt P78504 32-1046, limits assumed).
T3 construct: also called R&D Cat. No. 1277-JG-050
As to the kind of experiment: BLI (Octet QK): rhNotch3 on the sensor, IgG in place of a Notch3 antibody, then the ligand in solution. The method, then:
(§3) The 4F11 antibody was tested for its ability to inhibit the binding of rhNotch3 binding to human Jag1, Jag2, DLL1 and DLL4. Binding measurements were made by bio-layer interferometry (BLI), using a FortéBio Octet® QK instrument (ForteBio, Menlo Park, Calif.). The ligands tested were rhJag1-Fc (R&D Cat. No. 1277-JG-050), rhJag2-Fc (R&D Cat. No. 1726-JG-050), rhDLL1-Fc (R&D Cat. No. 5026-DL-050), and His tagged rhDLL4 (R&D Cat. No. 1506-D4-050).
(§4) To determine the degree of inhibition of Notch3-ligand binding by antibody 4F11, the Octet sensors were loaded with recombinant human Notch3, and the antibody was allowed to bind, as described in Example 4. In positive control samples, a commercially available Notch3 polyclonal antibody capable of blocking ligand binding to recombinant human Notch3 (Notch3 Specific Control) was used instead of the 4F11 antibody. Then sensors were immersed in 500 ug/ml human IgG, to block non-specific binding. Ligands were prepared at a concentration of 400 nM in PBS containing 3% BSA, and were allowed to bind. The on-rate and off-rate for ligand binding were detected using the Octet QK instrument and software. The 4F11 antibody blocked binding of all four ligands to rhNotch3-Fc (FIG. 5A-5D).
In general terms: Biolayer interferometry detects binding as a change in optical thickness at a sensor tip.
Turning to B6, the binding result is listed as “binds”.

Another test addresses T4, rhJag2-Fc (human, UniProt Q9Y219 27-1080, limits assumed).
T4 construct: also called R&D Cat. No. 1726-JG-050
The description is as above. The method, then:
as §3, §4
As to B6, the binding result is “binds”.

The target of another test is T5, His tagged rhDLL4 (human, UniProt Q9NR61 27-524).
T5 construct: also called R&D Cat. No. 1506-D4-050
T5 sequence (Q9NR61 27-524 limits assumed): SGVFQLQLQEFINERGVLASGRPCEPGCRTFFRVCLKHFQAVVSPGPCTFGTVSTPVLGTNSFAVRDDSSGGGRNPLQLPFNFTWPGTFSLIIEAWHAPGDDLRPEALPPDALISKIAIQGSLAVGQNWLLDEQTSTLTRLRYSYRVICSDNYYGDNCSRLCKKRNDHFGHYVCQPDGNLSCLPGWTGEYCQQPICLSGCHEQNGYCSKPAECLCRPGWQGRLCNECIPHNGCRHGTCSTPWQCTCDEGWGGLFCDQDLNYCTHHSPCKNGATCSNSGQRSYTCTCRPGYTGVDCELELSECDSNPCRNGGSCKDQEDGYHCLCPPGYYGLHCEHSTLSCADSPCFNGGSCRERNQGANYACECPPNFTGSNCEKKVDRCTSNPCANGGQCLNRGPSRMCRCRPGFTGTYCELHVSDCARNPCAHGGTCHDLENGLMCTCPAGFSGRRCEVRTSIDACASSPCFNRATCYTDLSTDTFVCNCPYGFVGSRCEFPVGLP
The description is as above. The method, then:
as §3, §4
Regarding B6, the binding result was “binds”.
